This assay deals with MBP-GS fusion construct Δ2 (not stated | E. coli) [MBP: P0AEX9]. Nature of the assay: cryo-EM structure.

In the case of “MBP-GS fusion construct Δ2 (from UniProt P0AEX9 27-396; P0A9C5 3-469)”, the stoichiometry N came to 12.

What is called stoichiometry N is the number of molecules, sites or subunits per partner or assembly.

Values taken from publication PMC4971460.
